Laboratory results as given in the supplement of paper PMC9876800.

System: peptide library, one residue held at a place counted from the S/T acceptor
Test: relative phosphorylation of the sub-library (ratio to the mean residue at this position); higher = residue favoured
Details: human
Procedure, shortened: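 Purified recombinant kinases were reacted in 384-well plates with biotinylated degenerate peptide sub-libraries, each having one residue fixed at one position around a central Ser/Thr. The reaction mix contained 50 μM peptide plus 50 μM ATP spiked with γ-32P-ATP and ran for 90 min under kinase-specific conditions. Relative sub-library phosphorylation, taken from densitometry of phosphorimaged streptavidin membrane spots, is a ratio to the mean residue at that position.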

Chain of CAMK2G, construct: aa24-334 (Q13555 24-334, looked up): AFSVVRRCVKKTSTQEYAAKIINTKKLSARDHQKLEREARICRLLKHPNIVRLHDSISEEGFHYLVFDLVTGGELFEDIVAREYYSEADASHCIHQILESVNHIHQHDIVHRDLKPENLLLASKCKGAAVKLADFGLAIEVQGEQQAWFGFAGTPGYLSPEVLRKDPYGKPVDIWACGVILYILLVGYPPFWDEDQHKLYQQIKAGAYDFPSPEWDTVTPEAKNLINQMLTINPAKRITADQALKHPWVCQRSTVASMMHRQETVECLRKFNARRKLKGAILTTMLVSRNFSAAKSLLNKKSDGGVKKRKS

CAMK2G, construct: aa24-334 (from UniProt Q13555)
relative phosphorylation
Details | at +1 | at +2 | at +3 | at +4 | at -1 | at -2 | at -3 | at -4 | at -5
A fixed | 0.737 | 0.749 | 0.902 | 0.943 | 0.933 | 0.991 | 0.897 | 0.98 | 1
D fixed | 0.862 | 3.95 | 1.64 | 1.87 | 1.41 | 1.02 | 0.898 | 1.07 | 1.13
E fixed | 0.878 | 2.06 | 2.04 | 1.99 | 1.26 | 0.887 | 0.9 | 1.04 | 1.12
F fixed | 2.53 | 0.723 | 0.818 | 0.816 | 0.913 | 1.25 | 1.27 | 0.987 | 0.991
G fixed | 0.709 | 0.692 | 0.983 | 1.02 | 0.953 | 1.07 | 0.829 | 0.974 | 0.971
H fixed | 0.814 | 0.784 | 0.979 | 0.903 | 0.897 | 1.25 | 1.06 | 1.14 | 1.19
I fixed | 1.14 | 0.712 | 0.879 | 0.814 | 0.855 | 0.775 | 0.918 | 0.924 | 0.855
K fixed | 0.824 | 0.705 | 0.863 | 0.785 | 1.1 | 0.889 | 0.945 | 0.946 | 1.09
L fixed | 1.01 | 0.675 | 0.907 | 0.812 | 0.965 | 0.795 | 0.916 | 0.894 | 0.953
M fixed | 1.43 | 0.696 | 0.855 | 0.785 | 0.944 | 0.841 | 1.04 | 0.903 | 0.871
N fixed | 0.813 | 0.92 | 0.943 | 0.91 | 1.05 | 1.17 | 1.04 | 1.07 | 1.02
P fixed | 0.675 | 0.64 | 0.708 | 0.948 | 0.78 | 0.705 | 0.871 | 0.896 | 0.864
Q fixed | 0.959 | 0.773 | 0.98 | 0.911 | 1.07 | 1 | 0.982 | 0.96 | 0.916
R fixed | 0.841 | 0.72 | 0.833 | 0.764 | 1.11 | 0.963 | 1.14 | 0.906 | 1
V fixed | 1.02 | 0.729 | 0.888 | 0.85 | 0.912 | 0.805 | 0.829 | 0.883 | 0.963
W fixed | 0.776 | 0.74 | 0.877 | 1.01 | 0.919 | 1.41 | 1.33 | 1.37 | 1.13
Y fixed | 0.984 | 0.728 | 0.907 | 0.881 | 0.933 | 1.18 | 1.14 | 1.05 | 0.938
pThr fixed | 1.09 | 1.16 | 1.78 | 2.53 | 1.25 | 1 | 0.985 | 1.11 | 1
pTyr fixed | 1.23 | 4.79 | 1.69 | 2.15 | 1.63 | 1.11 | 1.11 | 1.1 | 1.02

MAP2K2, construct: aa306-end (from UniProt P36507)
relative phosphorylation
Details | at +1 | at +2 | at +3 | at +4 | at -1 | at -2 | at -3 | at -4 | at -5
A fixed | 0.617 | 1.06 | 0.962 | 0.933 | 0.978 | 0.833 | 1.06 | 0.961 | 1.08
D fixed | 1.32 | 0.532 | 0.643 | 0.706 | 0.63 | 0.982 | 0.744 | 1.13 | 1.01
E fixed | 0.689 | 0.364 | 0.589 | 0.62 | 0.606 | 0.819 | 0.803 | 1.01 | 0.781
F fixed | 1.49 | 0.907 | 1.05 | 0.995 | 1.19 | 2.06 | 1.51 | 1.05 | 0.965
G fixed | 0.624 | 0.787 | 1.22 | 1.08 | 1.35 | 0.713 | 0.737 | 1.14 | 1.07
H fixed | 0.836 | 3.02 | 1.3 | 1.08 | 1.01 | 2.51 | 0.945 | 1.04 | 0.996
I fixed | 1.55 | 0.963 | 1.02 | 0.968 | 0.735 | 0.626 | 1.18 | 0.808 | 0.73
K fixed | 0.453 | 0.771 | 0.833 | 0.882 | 1.03 | 0.674 | 0.649 | 0.799 | 1.01
L fixed | 1.46 | 0.795 | 0.981 | 0.927 | 1.49 | 0.763 | 1.4 | 0.984 | 0.789
M fixed | 1.89 | 1.13 | 0.865 | 0.862 | 1.32 | 1.09 | 1.58 | 1.05 | 0.943
N fixed | 0.537 | 0.756 | 0.744 | 0.755 | 0.696 | 0.768 | 0.63 | 0.921 | 0.962
P fixed | 0.347 | 0.681 | 0.947 | 1.02 | 0.494 | 0.46 | 0.691 | 0.857 | 1.11
Q fixed | 0.625 | 0.8 | 0.742 | 0.79 | 0.842 | 0.705 | 0.585 | 0.835 | 0.819
R fixed | 0.474 | 0.847 | 0.926 | 0.985 | 1.34 | 0.966 | 0.787 | 0.929 | 1.1
V fixed | 1.03 | 0.875 | 0.933 | 0.74 | 0.874 | 0.562 | 0.885 | 0.789 | 1.14
W fixed | 1.36 | 1.18 | 1.51 | 1.96 | 1.08 | 1.29 | 1.38 | 1.38 | 1.25
Y fixed | 1.7 | 1.54 | 1.73 | 1.69 | 1.34 | 1.18 | 1.44 | 1.31 | 1.25
pThr fixed | 0.823 | 0.505 | 0.611 | 0.607 | 0.404 | 0.431 | 0.575 | 0.741 | 0.914
pTyr fixed | 0.886 | 0.37 | 0.827 | 0.673 | 0.592 | 0.431 | 0.675 | 0.795 | 0.953
